We go through 3 molecules from US20250027060A1 (VIB VZW, published 2025).

In test [1] the target is T1, LTKTG-EGFL (human LTK amino acids 63-420) (human, UniProt P29376 63-420).
T1 construct: Fc-His6 tag removed by caspase 3; also called LTK (in BLI, SEC-MALLS and ITC)
T1 sequence: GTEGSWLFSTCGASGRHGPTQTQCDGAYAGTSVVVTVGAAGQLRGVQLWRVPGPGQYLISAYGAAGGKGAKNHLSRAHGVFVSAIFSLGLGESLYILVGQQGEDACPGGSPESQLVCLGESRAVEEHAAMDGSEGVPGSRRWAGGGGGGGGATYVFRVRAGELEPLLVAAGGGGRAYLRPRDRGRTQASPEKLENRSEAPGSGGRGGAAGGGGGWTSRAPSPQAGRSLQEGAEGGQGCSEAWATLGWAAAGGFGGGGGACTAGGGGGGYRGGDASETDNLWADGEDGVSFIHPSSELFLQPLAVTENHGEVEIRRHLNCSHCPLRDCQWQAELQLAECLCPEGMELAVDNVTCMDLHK
The test can be described thus: ITC, 310 K, one-site model, 2:1 stoichiometry. How it is done: (§1) The right panel represents the binding isotherm obtained from the integration of the raw data and fitted to a one-site model. Standard deviations were calculated based on 3 measurements.
(§2) Experiments were performed using a MicroCal PEAQ-ITC instrument at 310K. Proteins used in ITC experiments were expressed in HEK293S cells grown in suspension. As a final purification step all proteins were buffer exchanged to the same HBS buffer via size-exclusion chromatography. Titrations were preceded by an initial injection of 0.5 μL. The injection spacing was optimized per experiment to allow for the signal to get back to a stable baseline. Throughout the titration the sample was stirred at a speed of 750 r.p.m. Data were analyzed using the PEAQ-ITC analysis software (version 1.1.0.1262, Malvern) and fit using a “one set of sites” model.

Test [2] has as its target T2, ALKTG (human ALK amino acids 648-985) (human, UniProt Q9UM73 648-985, N-linked glycans; EndoH-trimmed for crystals and SEC-MALLS).
T2 construct: Fc-His6 tag removed by caspase 3; also called ALK TG supradomain
The test can be described thus: ITC. How it is done: as §2

Test [3] deals with T3, ALKTG-EGFL (human ALK amino acids 648-1025) (human, UniProt Q9UM73 648-1025, N-linked glycans; EndoH-trimmed (deglycosylated) for crystals and SEC-MALLS).
T3 construct: The C-terminal Fc-His6 tag was removed by caspase 3; also called ALK (in BLI, SEC-MALLS and ITC)
T3 sequence (Q9UM73 648-1025): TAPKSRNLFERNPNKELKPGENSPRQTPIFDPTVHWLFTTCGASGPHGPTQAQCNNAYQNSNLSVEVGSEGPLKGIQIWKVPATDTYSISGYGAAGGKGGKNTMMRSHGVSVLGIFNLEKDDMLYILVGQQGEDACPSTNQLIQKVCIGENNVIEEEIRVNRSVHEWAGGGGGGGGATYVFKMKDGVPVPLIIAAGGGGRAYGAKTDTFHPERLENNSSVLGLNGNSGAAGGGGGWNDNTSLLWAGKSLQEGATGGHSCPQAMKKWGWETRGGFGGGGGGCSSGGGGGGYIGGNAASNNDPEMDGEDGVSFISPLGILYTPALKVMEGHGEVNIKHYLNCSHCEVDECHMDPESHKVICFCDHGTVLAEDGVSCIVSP
The test can be described thus: ITC at 310 K, ALKAL1 (25 µM) titrated with ALKTG-EGFL (210 µM), one-site model. How it is done:
(§3) FIG. 5A and FIG. 5B Isothermal titration calorimetry thermograms for the titration of ALK_TG-EGFL (10 μM) with ALKAL2 (100 μM) (FIG. 5A) and titration of ALKAL1 (25 μM) with ALK_TG-EGFL (210 μM) (FIG. 5B). […] The right panel represents the binding isotherm obtained from the integration of the raw data and fitted to a one-site model. Standard deviations were calculated based on 3 measurements.
as §2

The target of test [4] is T3, ALKTG-EGFL (human ALK amino acids …). The test can be described thus: BLI, biotinylated ALKAL1 on streptavidin biosensors, ALKTG-EGFL in solution 6 µM to 400 nM, 1:1 model. The text has this:
(§4) FIGS. 10A and 10B Representative response curves as measure by biolayer-interferometry (BLI) for the interaction of WT ALKAL1 and ALKAL1 mutants (containing charge-reversal mutations of residues involved in site 1) (FIG. 10A) and WT ALKAL2 and ALKAL2 mutants (FIG. 10B) with ALK_TG-EGFL and LTK_TG-EGFL. For WT ALKALs LTK curves were fitted with a 2:1 binding model (red) while for ALK a 1:1 model was used. Start and end concentrations of the 3-fold dilution series used for the WT measurements is shown as an inset while for all mutants a […] dilution series from 6.4 μM-400 nM was used.
(§5) All measurements of binding kinetics and dissociation constants were performed using an Octet Red 96 (Forté Bio) in assay buffer (20 mM HEPES pH 7.4, 150 mM NaCl, 0.02% (w/v) BSA, 0.002% (v/v) Tween 20) at 298K. ALKALs were immobilized to a level of 0.5 nm on streptavidin-coated biosensors (Forté Bio). To verify that no a specific binding was present during the assay, non-functionalized biosensors were used as a control by measuring in parallel all ligand concentrations as well as running buffer. For all mutants a two-fold dilution series from 6.4 μM-400 nM was employed. Data analysis was performed using the Data Analysis software 9.0.0.14 (Forté Bio) and binding curves were exported to Prism8 (Graphpad Software) for plotting of curves.

For test [5], the target named is T1, LTKTG-EGFL (human LTK amino acids …). Put plainly: BLI, biotinylated ALKAL1 on streptavidin biosensors, LTKTG-EGFL in solution 300 nM to 11 nM, 2:1 binding model, component 1.
Source text: as §4, §5
Background: Biolayer interferometry detects binding as a change in optical thickness at a sensor tip.

Test [6] has as its target T4, LTKTG (human LTK amino acids 63-379) (human, UniProt P29376 63-379).
T4 construct: also called LTK TG supradomain
T4 sequence: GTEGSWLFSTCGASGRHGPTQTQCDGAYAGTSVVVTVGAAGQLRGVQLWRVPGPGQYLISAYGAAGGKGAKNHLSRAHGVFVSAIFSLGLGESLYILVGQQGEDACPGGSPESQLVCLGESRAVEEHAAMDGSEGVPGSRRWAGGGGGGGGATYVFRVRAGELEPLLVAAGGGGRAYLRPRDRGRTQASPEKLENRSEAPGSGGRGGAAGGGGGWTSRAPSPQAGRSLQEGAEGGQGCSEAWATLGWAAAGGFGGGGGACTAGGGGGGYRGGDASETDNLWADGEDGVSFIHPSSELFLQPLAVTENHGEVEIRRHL
Put plainly: ITC at 310 K, LTKTG (10 µM) titrated with ALKAL1 (70 µM), one-site model. Here is the method:
FIG. 12F, ITC experiments for the titration of LTKTG (10 μM) with ALKAL1 (70 μM) Standard deviations were calculated based on 2 measurements.
as §2

Test [7] deals with T3, ALKTG-EGFL (human ALK amino acids …). The test can be described thus: ITC, 310 K, one-site model. Here is the method:
as §3, §2
On the technique in general: Isothermal titration calorimetry measures the heat released or taken up as one component is titrated into another.

Test [8] addresses T1, LTKTG-EGFL (human LTK amino acids …). Put plainly: BLI, biotinylated ALKAL1 on streptavidin biosensors, LTKTG-EGFL in solution 300 nM to 11 nM, 2:1 binding model, component 2.
Source text: as §4, §5

The target in test [9] is T2, ALKTG (human ALK amino acids 648-985). The test can be described thus: ITC at 310 K, ALKAL1 (33 µM) titrated with ALKTG (330 µM), one-site model. How it is done: FIG. 5E, Titration of ALKAL1 (33 μM) with ALKTG (330 μM) Standard deviations were calculated based on 3 measurements.
as §2

In test [10] the target is T1, LTKTG-EGFL (human LTK amino acids …). Put plainly: ITC at 310 K, LTKTG-EGFL (5 µM) titrated with ALKAL1 (56 µM), one-site model. Here is the method: as §1, §2
For test [11] the target is unchanged. The test can be described thus: BLI, biotinylated ALKAL1 R102E on streptavidin biosensors, LTKTG-EGFL in solution, dilution series 6.4 µM-400 nM.
Source text: as §4, §5

Test [12] has as its target T5, ALKFL (full-length human ALK ectodomain, amino acids 19-1025) (human, UniProt Q9UM73 19-1025).
T5 construct: Fc-His6 tag removed by caspase 3; also called full-length ALK ectodomain
Put plainly: ITC at 310 K, ALKFL (8 µM) titrated with ALKAL2 (82 µM), one-site model.

Test [13] deals with T2, ALKTG (human ALK amino acids 648-985). Put plainly: ITC at 310 K, ALKAL2 (33 µM) titrated with ALKTG (330 µM), one-site model. Here is the method: FIG. 5D, Titration of ALKAL2 (33 μM) with ALKTG (330 μM) Standard deviations were calculated based on 3 measurements.
as §2

Test [14] deals with T3, ALKTG-EGFL (human ALK amino acids …). The test can be described thus: BLI, biotinylated ALKAL2 on streptavidin biosensors, ALKTG-EGFL in solution 800 nM to 12.5 nM, 1:1 model.
Source text: as §4, §5

In test [15] the target is T1, LTKTG-EGFL (human LTK amino acids …). The test can be described thus: BLI, biotinylated ALKAL2 on streptavidin biosensors, LTKTG-EGFL in solution 300 nM to 11 nM, 2:1 binding model, component 2.
Source text: as §4, §5

Test [16] shares this target. The test can be described thus: BLI, biotinylated ALKAL2 on streptavidin biosensors, LTKTG-EGFL in solution 300 nM to 11 nM, 2:1 binding model, component 1.
Source text: as §4, §5

Test [17] deals with T4, LTKTG (human LTK amino acids 63-379). The test can be described thus: ITC at 310 K, LTKTG (10 µM) titrated with ALKAL2 (100 µM), one-site model. How it is done: FIG. 12G, ITC experiments for the titration of LTKTG (10 μM) with ALKAL2 (100 μM) Standard deviations were calculated based on 2 measurements.
as §2

The target in test [18] is T1, LTKTG-EGFL (human LTK amino acids …). Put plainly: ITC at 310 K, LTKTG-EGFL (12 µM) titrated with ALKAL2 (56 µM), one-site model. Here is the method: as §1, §2
Test [19] concerns the target T3, ALKTG-EGFL (human ALK amino acids …). Put plainly: ITC at 310 K, ALKTG-EGFL (10 µM) titrated with ALKAL2 (100 µM), one-site model. How it is done: as §3, §2

Changes are numbered by the printed parent chain. In names and notes the source's numbering stands.

T2 sequence (Q9UM73 648-985 limits assumed): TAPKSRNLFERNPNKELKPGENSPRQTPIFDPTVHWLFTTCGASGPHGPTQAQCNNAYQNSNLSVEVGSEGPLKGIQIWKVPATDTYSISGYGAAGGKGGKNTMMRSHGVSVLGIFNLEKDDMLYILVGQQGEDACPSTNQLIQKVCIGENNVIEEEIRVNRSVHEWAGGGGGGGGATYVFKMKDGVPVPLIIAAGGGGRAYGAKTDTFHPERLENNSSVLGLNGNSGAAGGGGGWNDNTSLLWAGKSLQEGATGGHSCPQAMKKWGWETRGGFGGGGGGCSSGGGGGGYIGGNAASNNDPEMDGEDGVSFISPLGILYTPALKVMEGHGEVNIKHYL
T5 sequence (Q9UM73 19-1025): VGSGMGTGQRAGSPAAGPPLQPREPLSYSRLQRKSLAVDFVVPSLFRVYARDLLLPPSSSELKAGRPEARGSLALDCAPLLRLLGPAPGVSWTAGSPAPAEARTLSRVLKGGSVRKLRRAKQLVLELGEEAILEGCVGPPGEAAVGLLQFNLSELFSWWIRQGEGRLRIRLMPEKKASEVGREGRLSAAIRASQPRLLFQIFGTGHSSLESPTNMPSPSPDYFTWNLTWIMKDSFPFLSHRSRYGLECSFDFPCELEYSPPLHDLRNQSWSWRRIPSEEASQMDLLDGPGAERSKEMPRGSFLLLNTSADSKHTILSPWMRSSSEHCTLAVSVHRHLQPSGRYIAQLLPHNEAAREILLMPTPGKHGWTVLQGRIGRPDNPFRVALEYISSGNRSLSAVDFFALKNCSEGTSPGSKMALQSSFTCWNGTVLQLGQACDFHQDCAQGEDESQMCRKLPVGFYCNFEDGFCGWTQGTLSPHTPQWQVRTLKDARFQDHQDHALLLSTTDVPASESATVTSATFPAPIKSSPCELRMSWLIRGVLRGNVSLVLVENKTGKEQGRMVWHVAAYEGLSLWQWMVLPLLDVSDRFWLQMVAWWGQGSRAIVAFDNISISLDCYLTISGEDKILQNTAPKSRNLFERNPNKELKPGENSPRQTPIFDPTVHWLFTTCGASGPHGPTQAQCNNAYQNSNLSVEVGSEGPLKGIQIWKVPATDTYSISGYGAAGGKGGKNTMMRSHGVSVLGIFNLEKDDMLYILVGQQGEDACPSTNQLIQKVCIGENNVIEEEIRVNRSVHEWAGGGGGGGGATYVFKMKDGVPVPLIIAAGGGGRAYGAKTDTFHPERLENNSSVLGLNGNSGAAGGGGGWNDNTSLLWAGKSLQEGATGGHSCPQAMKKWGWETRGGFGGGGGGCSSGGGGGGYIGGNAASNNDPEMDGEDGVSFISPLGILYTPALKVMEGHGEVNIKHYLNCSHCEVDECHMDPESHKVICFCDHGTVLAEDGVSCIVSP

B1: ALKAL1 (truncated, residues 57-129) (ligand, human, UniProt Q6UXT8 57-129, looked up)
chain: PSGSRSAEIFPRDSNLKDKFIKHFTGPVTFSPECSKHFHRLYYNTRECSTPAYYKRCARLLTRLAVSPLCSQT
notes: range 57-129; Tag-free in ITC, SEC-MALLS, crystals and Ba/F3 assays; also called ALKAL1^WT; WT ALKAL1
Consider B1, for which the Kd came out at 10 nM in test [1]; 760 nM in test [4]; 48 nM in test [5]; 69 nM in test [6]; 600 nM in test [7]; 31 nM in test [8]. Also, the Kd in [9] amounted to 2500 nM; in [10], 55 nM. The “fold decrease in affinity against ALKTG-EGFL” value in [2] was determined as 4 fold. For the same molecule, the ΔG in [3] is -8.93 kcal/mol; in test [6] it was -10.2 kcal/mol; in test [9], -7.95 kcal/mol; in [10] it was -10.4 kcal/mol. Further, the ΔH in test [3] was -7.3 kcal/mol; in [6], -28.6 kcal/mol; in test [9], -5.5 kcal/mol; in test [10], -29.4 kcal/mol. The koff is 0.093 s⁻¹ in [4], 0.0025 s⁻¹ in [5] and 0.026 s⁻¹ in test [8]. Further, the kon in [4] came out at 130000 M⁻¹ s⁻¹; in [5], 52000 M⁻¹ s⁻¹; in [8], 860000 M⁻¹ s⁻¹.

B2: ALKAL1^R102E (residues 57-129) (ligand, human, UniProt Q6UXT8 57-129, looked up)
chain: B1 chain with R46E
notes: range 57-129; also called ALKAL1 site 1 mutant R102E
B2 had a Kd in test [11] of 14000 nM.

B3: ALKAL2 (truncated, residues 78-152) (ligand, human, UniProt Q6UX46 78-152, looked up)
chain: PSPEQRVEIVPRDLRMKDKFLKHLTGPLYFSPKCSKHFHRLYHNTRDCTIPAYYKRCARLLTRLAVSPVCMEDKQ
notes: range 78-152; Tag-free in ITC, SEC-MALLS, crystals and Ba/F3 assays; also called ALKAL2^WT; WT ALKAL2
B3: the Kd in [12] amounted to 70 nM; in test [13], 1300 nM; in [14] it was 135 nM; in test [1], 55 nM; in [15] it was 350 nM; in test [16] it was 100 nM. Besides, the Kd turned out to be 6.8 nM in test [17], 10 nM in [18] and 40 nM in test [7]. For the same molecule, the ΔG in [12] was -9.4 kcal/mol; in [13] it was -8.34 kcal/mol; in [17] it was -11.6 kcal/mol; in [18], -11.4 kcal/mol; in test [19] it was -10.6 kcal/mol. Further, the ΔH in test [12] was -9.7 kcal/mol; in test [13], -8.3 kcal/mol; in [17] it was -30.2 kcal/mol; in [18] it was -31 kcal/mol; in test [19] it was -10.1 kcal/mol. Moreover, in [2], the “fold decrease in affinity against ALKTG-EGFL” value is 30 fold. For the same molecule, the koff turned out to be 0.0005 s⁻¹ in test [15] and 0.0037 s⁻¹ in test [16]. Also, the kon in [15] was 4000 M⁻¹ s⁻¹; in test [16], 28000 M⁻¹ s⁻¹.

Usually Kd stands for the constant that tells how readily two partners part at equilibrium. Read a low Kd as tighter binding. By koff is commonly meant a measure of how fast the partners let go of each other. Lower therefore signals a long-lived complex. As a reminder, the kon is a measure of how fast the partners come together. A low value points to slower complex formation.
